# In US20180134769A1 (NATIONAL RESEARCH COUNCIL OF CANADA, published 2018):
# Positions count from the first letter of the chain named.
# B1: A5.1 (VHH)
# VHH: QVKLEESGGGLVQAGGSLRLSCAASGRTFSMYRMGWFRQAPGKEREFVGVITRNGSSTYYADSVKGRFTISRDNAKNTVYLQMNSLKPEDTALYYCAATSGSSYLDAAHVYDYWGQGTQVTVSS
# notes: also called anti-TcdA VHH A5.1
# B2: A20.1 (VHH)
# VHH: QVQLVESGGGLAQAGGSLRLSCAASGRTFSMDPMAWFRQPPGKEREFVAAGSSTGRTTYYADSVKGRFTISRDNAKNTVYLQMNSLKPEDTAVYYCAAAPYGANWYRDEYAYWGQGTQVTVSS
# notes: also called anti-TcdA VHH A20.1
# B3: B5.2 (VHH)
# VHH: QVQLVESGGGLVQPGGSLRLSCAASGNIFSINTMGWYRQAPGKQLELVAAITSGGTTSYTDSVEGRFTISRDNAKNAVYLQMNSLKAEDTAVYYCNTVKVVGGRLDNPDYWGQGTQVTVSS
# notes: llama VHH monomer; also called anti-TcdB VHH B5.2
# B4: B13.6 (VHH)
# VHH: QVKLEESGGGLVQAGGSLRLSCSASGRTFSSGVMGWFRQAPGKQRELVAAITTGGSTSYTDSVKGRFTISRDNAKNTVYLQMNSLKPEDTAVYYCNSVAVVGGVIKSPDYWGQGTQVTVSS
# notes: llama VHH monomer; also called anti-TcdB VHH B13.6
# B5: B15.5 (VHH)
# VHH: QVQLVESGGDLVQAGGSLRLSCAASGSISRISTMGWYRQAPGKQRELVATISTGGTTNYAESVKGRFTVSRDNAKNTMYLQMNSLKPEDTAVYYCAAGWKVVRGSLEYEYSGQGTQVTVSS
# notes: llama VHH monomer; also called anti-TcdB VHH B15.5
# B6: A24.1 (VHH)
# VHH: QVQLVESGGGLVQAGGSLRLSCAASIRSFSNRNMGWFRQPPGKEREFVAGISWGGGSTRYADSVKGRFTISRDNAKKTVYLQMNSLKPEDTAVYYCAAEFGHNIATSSDEYDYWGQGTQVTVSS
# notes: also called anti-TcdA VHH A24.1
# B7: A19.2 (VHH)
# VHH: QVKLEESGGGLVQPGGSLRLSCAASGRTLSSYIVAWFRQAPGKEREFVAGISRRGGNSAYVESVKGRFTISRDNAKNTVYLQMNSLKPEDTAVYYCAADGSVAGWGRRSVSVSSYDYWGQGTQVTVSS
# notes: also called anti-TcdA VHH A19.2
# B8: A4.2 (VHH)
# VHH: QVKLEESGGGLVQAGGSLRLSCAASGRTFNTLSMGWFRQAPGKEREFVAAVSRSGGSTYYADSVKGRFTISRDNAKNTVYLQMNSLKPEDTAVYYCAAAATKSNTTAYRLSFDYWGQGTQVTVSS
# notes: also called anti-TcdA VHH A4.2
# B9: A26.8 (VHH)
# VHH: QVKLEESGGGLVQAGGSLRLSCAASERTFSRYPVAWFRQAPGAEREFVAVISSTGTSTYYADSVKGRFTISRDNAKVTVYLQMNNLKREDTAVYFCAVNSQRTRLQDPNEYDYWGQGTQVTVSS
# notes: also called anti-TcdA VHH A26.8
# B10: A5.1m (VHH)
# VHH: B1 VHH with G49C, I70C
# notes: also called mutant A5.1; disulfide mutant of A5.1
# B11: A26.8m (VHH)
# VHH: B9 VHH with A49C, I70C
# notes: also called mutant A26.8; disulfide mutant of A26.8
# B12: A20.1m (VHH)
# VHH: B2 VHH with A49C, I70C
# notes: also called mutant A20.1; disulfide mutant of A20.1
# B13: A4.2m (VHH)
# VHH: B8 VHH with A49C, I70C
# notes: also called mutant A4.2; disulfide mutant of A4.2
# B14: A5.1p (other)
# VHH: B1 VHH
# B15: A20.1p (other)
# VHH: B2 VHH
# Molecular target: T1, Clostridium difficile toxin A (TcdA) (Clostridium difficile strain 10463, UniProt P16154 1-2710)
# T1 construct: range 1-2710
# Assay: ELISA, TcdA coated at 5 ug/ml, rabbit anti-His6 IgG-HRP
row,Binder,EC50 (read off the curve)
1,B1,~7 nM
2,B2,~1 nM

# Molecular target: T2, TcdB-RBD-f1 (Clostridium difficile, UniProt P18177 2286-2366)
# T2 construct: range 2286-2366
# Assay: SPR (BIACORE 3000); VHH immobilized on CM5 chip, TcdB-RBD-f1 injected
Binder,Kd,koff,kon
B3,100 nM,0.0002 s⁻¹,2000 M⁻¹ s⁻¹
B4,400 nM,0.001 s⁻¹,2500 M⁻¹ s⁻¹
B5,357 nM,0.001 s⁻¹,2800 M⁻¹ s⁻¹

# Molecular target: T1, Clostridium difficile toxin A (TcdA)
# Assay: ELISA, antigen coated
row,Binder,binding result
1,B3,binds

# Molecular target: T3, Clostridium difficile toxin B (TcdB) (Clostridium difficile strain 10463, UniProt P18177 1-2366)
# T3 construct: range 1-2366
# Assay: ELISA, antigen coated
row,Binder,binding result
1,B1,no binding
2,B2,no binding
3,B6,no binding
4,B7,no binding
5,B8,no binding

# Molecular target: T4, TcdA-RBD-f1 (Clostridium difficile, UniProt P16154 2304-2710)
# T4 construct: range 2304-2710
# Assay: ELISA, antigen coated
row,Binder,binding result
1,B9,binds

# Molecular target: T2, TcdB-RBD-f1
# Assay: ELISA, antigen coated
row,Binder,binding result
1,B1,no binding
2,B9,no binding
3,B2,no binding
4,B6,no binding
5,B7,no binding
6,B8,no binding

# Molecular target: T1, Clostridium difficile toxin A (TcdA)
# Assay: SPR (BIACORE 3000); TcdA immobilized on CM5 chip, monomeric VHH injected
Binder,Kd,koff,kon
B1,3 nM,0.005 s⁻¹,1.6e+06 M⁻¹ s⁻¹
B2,2 nM,0.0016 s⁻¹,820000 M⁻¹ s⁻¹
B6,260 nM,0.016 s⁻¹,60000 M⁻¹ s⁻¹
B7,290 nM,0.0039 s⁻¹,14000 M⁻¹ s⁻¹
B8,24 nM,0.016 s⁻¹,–

# Molecular target: T1, Clostridium difficile toxin A (TcdA)
# Assay: SPR (BIACORE 3000); 10,287 RUs of TcdA immobilized, VHH injected
Binder,Kd,koff,kon
B10,17 nM,0.016 s⁻¹,950000 M⁻¹ s⁻¹
B11,28 nM,0.028 s⁻¹,1e+06 M⁻¹ s⁻¹
B12,9.2 nM,0.0059 s⁻¹,640000 M⁻¹ s⁻¹
B13,20 nM,0.019 s⁻¹,930000 M⁻¹ s⁻¹

# Molecular target: T1, Clostridium difficile toxin A (TcdA)
# Assay: not given
row,Binder,EC50 (read off the curve)
1,B14,~4 nM
2,B15,~1 nM

# Molecular target: T1, Clostridium difficile toxin A (TcdA)
# Assay: SPR, TcdA immobilized; same value as in Table 1
Binder,Kd,koff,kon
B1,3 nM,0.005 s⁻¹,1.6e+06 M⁻¹ s⁻¹
B2,2 nM,0.0016 s⁻¹,820000 M⁻¹ s⁻¹
B6,260 nM,0.016 s⁻¹,60000 M⁻¹ s⁻¹
B7,290 nM,0.0039 s⁻¹,14000 M⁻¹ s⁻¹
B8,24 nM,0.016 s⁻¹,670000 M⁻¹ s⁻¹

# Molecular target: T1, Clostridium difficile toxin A (TcdA)
# Assay: ELISA, immobilized TcdA, serial dilution of VHH, rabbit anti-His6 IgG-HRP
row,Binder,EC50 (read off the curve)
1,B7,~0.04 µg/mL

# Molecular target: T1, Clostridium difficile toxin A (TcdA)
# Assay: not given
# Remark: another data set of the same source
row,Binder,koff
1,B10,0.013 s⁻¹
2,B11,0.019 s⁻¹
3,B12,0.0059 s⁻¹
4,B13,0.016 s⁻¹
